Reference: PMC5901963 (Nature, 2017)

Assays:
[1] = biological target: bacTMEM175 from Streptomyces collinus (Streptomyces collinus); assay: cross-linking
[2] = biological target: bacTMEM175 from Chryseobacterium sp (Chryseobacterium sp); assay: cross-linking
crystal structure = biological target: the molecule itself; assay: crystal structure

**Q.** How did the stoichiometry N [1] turn out when “bacTMEM175 from Streptomyces collinus (natural protein)” was run?
**A.** Its stoichiometry N is 4.

**Q.** Which stoichiometry N [2] does the source give for “bacTMEM175 from Chryseobacterium sp (natural protein)” here?
**A.** Its stoichiometry N is 4.

B1: TMEM175 from Chamaesiphon minutus (CmTMEM175) (natural protein, UniProt K9UJK2 1-203, looked up)
chain: MVEAPEQSETGRIEAFSDGVFAIAITLLVLEIKVPQHKIVETVGLVSSLLSLWPSYLAFLTSFASILVMWVNHHRIFSLVARTDHAFFYWNGLLLMLVTFVPFPTALLAEYLIHPQARVAASVYAGIFLAIAIVFNRLWKHAATADRLLAQKADRHEVDAITKQYRFGPGLYLVAFALSFISVWLSVGVCFVLAIYFALRSNA
**Q.** How did the “stoichiometry N” value (crystal structure) turn out when B1 was run?
**A.** The value was 4.
